Measured values from paper doi:10.1101/2024.04.30.591897 (bioRxiv, 2024).

Target: LC3B (1-120, G120C) (human, UniProt Q9GZQ8 1-120, G120C)
Assay: pull-down

binding result: binds
B1: GST-ALG2^ΔN23 (domain or fragment)
chain: DQSFLWNVFQRVDKDRSGVISDTELQQALSNGTWTPFNPVTVRSIISMFDRENKAGVNFSEFTGVWKYITDWQNVFRTYDRDNSGMIDKNELKQALSGFGYRLSDQFHDILIRKFDRQGRGQIAFDDFIQGCIVLQRLTDIFRRYDTDQDGWIQVSYEQYLSMVFSIV
